{"source": "patent US20160222085A1", "about": "(CHILDREN S HOSPITAL OF PHILADELPHIA, published 2016)", "molecules": {"B1": {"name": "Bovine BR (Bos taurus Ser938-Lys996) (peptide, UniProt Q28107 966-1024, looked up)", "peptide": "SRTWGENIPFKNSHGKQSGHPTFLVTRRKPLQDRQDRRNSRLKEGLPLIRTRRKKKEEK"}, "B2": {"name": "FV-810 (FV-DT), Factor V with amino acids 811-1491 deleted from the B-domain (other, human, UniProt P12259 29-838, looked up)", "chain": "AQLRQFYVAAQGISWSYRPEPTNSSLNLSVTSFKKIVYREYEPYFKKEKPQSTISGLLGPTLYAEVGDIIKVHFKNKADKPLSIHPQGIRYSKLSEGASYLDHTFPAEKMDDAVAPGREYTYEWSISEDSGPTHDDPPCLTHIYYSHENLIEDFNSGLIGPLLICKKGTLTEGGTQKTFDKQIVLLFAVFDESKSWSQSSSLMYTVNGYVNGTMPDITVCAHDHISWHLLGMSSGPELFSIHFNGQVLEQNHHKVSAITLVSATSTTANMTVGPEGKWIISSLTPKHLQAGMQAYIDIKNCPKKTRNLKKITREQRRHMKRWEYFIAAEEVIWDYAPVIPANMDKKYRSQHLDNFSNQIGKHYKKVMYTQYEDESFTKHTVNPNMKEDGILGPIIRAQVRDTLKIVFKNMASRPYSIYPHGVTFSPYEDEVNSSFTSGRNNTMIRAVQPGETYTYKWNILEFDEPTENDAQCLTRPYYSDVDIMRDIASGLIGLLLICKSRSLDRRGIQRAADIEQQAVFAVFDENKSWYLEDNINKFCENPDEVKRDDPKFYESNIMSTINGYVPESITTLGFCFDDTVQWHFCSVGTQNEILTIHFTGHSFIYGKRHEDTLTLFPMRGESVTVTMDNVGTWMLTSMNSSPRSKKLRLKFRDVKCIPDDDEDSYEIFEPPESTVMATRKMHDRLEPEDEESDADYDYQNRLAAALGIRSFRNSSLNQEEEEFNLTALALENGTEFVSSNTDIIVGSNYSSPSNISKFTVNNLAEPQKAPSHQQATTAGSPLRHLIGKNSVLNSSTAEHSSPYSEDPIEDTDYIEIIPKEEVQSSEDDYAEIDYVPYDDPYKTDVRTNINSSRDPDNIAAWYLRSNNGNRRNYYIAAEEISWDYSEFVQRETDIEDSDDIPEDTTYKKVVFRKYLDSTFTKRDPRGEYEEHLGILGPIIRAEVDDVIQVRFKNLASRPYSLHAHGLSYEKSSEGKTYEDDSPEWFKEDNAVQPNSSYTYVWHATERSGPESPGSACRAWAYYSAVNPEKDIHSGLIGPLLICQKGILHKDSNMPMDMREFVLLFMTFDEKKSWYYEKKSRSSWRLTSSEMKKSHEFHAINGMIYSLPGLKMYEQEWVRLHLLNIGGSQDIHVVHFHGQTLLENGNKQHQLGVWPLLPGSFKTLEMKASKPGWWLLNTEVGENQRAGMQTPFLIMDRDCRMPMGLSTGIISDSQIKASEFLGYWEPRLARLNNGGSYNAWSVEKLAAEFASKPWIQVDMQKEVIITGIQTQGAKHYLKSCYTTEFYVAYSSNQINWQIFKGNSTRNVMYFNGNSDASTIKENQFDPPIVARYIRISPTRAYNRPTLRLELQGCEVNGCSTPLGMENGKIENKQITASSFKKSWWGDYWEPFRARLNAQGRVNAWQAKANNNKQWLEIDLLKIKKITAIITQGCKSLSSEMYVKSYTIHYSEQGVEWKPYRLKSSMVDKIFEGNTNTKGHVKNFFNPPIISRFIRVIPKTWNQSIALRLELFGCDIY", "notes": "range 1-810;range 1492-2196; Single-chain cofactor-like variant; All residue numbers count on mature Factor V (add 28 for the precursor)"}, "B3": {"name": "FV-810^QQ (other, human, UniProt P12259 29-838, looked up)", "chain": "B2 chain with R709Q, R864Q", "notes": "range 1-810;range 1492-2196; Both thrombin sites (Arg709 and Arg1545) changed to Gln; The same molecule is used for the thrombin-pretreated sample, since both cleavage sites are removed; the assay field says where thrombin pretreatment was used"}, "B4": {"name": "FV-810^R709Q (other, human, UniProt P12259 29-838, looked up)", "chain": "B2 chain with R709Q", "notes": "range 1-810;range 1492-2196; mature numbering"}, "B5": {"name": "FV-810^R1545Q (other, human, UniProt P12259 29-838, looked up)", "chain": "B2 chain with R864Q", "notes": "as for B4"}, "B6": {"name": "Factor V basic region peptide (FVBR), amino acids 951-1008 of Factor V (peptide)", "peptide": "SRAWGESTPLANKPGKQSGHPKFPRVRHKSLQVRQDGGKSRLKKSQFLIKTRKKKKEK", "notes": "Expressed in E. coli as a SUMO fusion; also called FV basic peptide; BR peptide"}}, "key": {"[1]": {"target": "FV-810 (FV-DT), Factor V with amino acids 811-1491 deleted from the B-domain (human) (UniProt P12259)", "assay": "fluorescence anisotropy displacement of OG488-BR; FXaS195A titrated into 30 nM OG488-BR, 20 nM FV-810, 50 uM PCPS"}, "[2]": {"target": "FV-810 (FV-DT), Factor V with amino acids 811-1491 deleted from the B-domain (human) (UniProt P12259)", "assay": "fluorescence anisotropy, displacement; FXa S195A titrated into 30 nM OG488-BR, 20 nM FV-810, 50 uM PCPS, 25 C; displaced ligand: OG488-BR"}, "[3]": {"target": "FV-810 (FV-DT), Factor V with amino acids 811-1491 deleted from the B-domain (human) (UniProt P12259)", "assay": "global fit of prethrombin-2 activation rates (1-50 nM FXa, 0-1000 nM BR, 5 nM FV-810, 50 uM PCPS) to a tight, competitive binding model"}, "[4]": {"target": "FV-810 (FV-DT), Factor V with amino acids 811-1491 deleted from the B-domain (human) (UniProt P12259)", "assay": "fluorescence anisotropy displacement of OG488-BR"}, "[5]": {"target": "FV-810 (FV-DT), Factor V with amino acids 811-1491 deleted from the B-domain (human) (UniProt P12259)", "assay": "fluorescence anisotropy displacement of OG488-BR; 30 nM OG488-BR, 20 nM FV-810, 50 uM PCPS; stoichiometry of 1 assumed"}, "[6]": {"target": "FV-810 (FV-DT), Factor V with amino acids 811-1491 deleted from the B-domain (human) (UniProt P12259)", "assay": "fluorescence anisotropy, displacement; bovine BR titrated into 30 nM OG488-BR, 20 nM FV-810, 50 uM PCPS, 25 C; competitor: OG488-BR"}, "[7]": {"target": "T1, Oregon Green 488 maleimide-modified BR (OG488-BR) (human, Oregon Green 488 maleimide on the added N-terminal Cys)", "T1 construct": "also called fluorescently labeled FVBR", "T1 peptide": "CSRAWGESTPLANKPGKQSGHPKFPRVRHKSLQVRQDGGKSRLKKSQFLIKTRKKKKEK", "assay": "fluorescence anisotropy; FV-810 titrated into 20 nM OG488-BR with 50 uM PCPS, 25 C", "method": "(§1) Control experiments were performed by titrating FV-810 into buffer containing 10 mM EDTA (X) or by titrating rFVa (▴).\n(§2) Steady-state fluorescence anisotropy was measured at 25° C. in a PTI Quanta-Master™ fluorescence spectrophotometer (Photon Technology International, Birmingham, N.J.) using excitation and emission wavelengths of 480 and 520 nm, respectively, with long-pass filters (KV500, CVI Melles Griot) in the emission beam."}, "[8]": {"target": "T1, Oregon Green 488 maleimide-modified BR …", "assay": "fluorescence anisotropy; FV-810 titrated into 40 nM OG488-BR with 50 uM PCPS, 25 C", "method": "as §1, §2"}, "[9]": {"target": "T1, Oregon Green 488 maleimide-modified BR …", "assay": "fluorescence anisotropy; buffer-pretreated FV-810 titrated into 30 nM OG488-BR with 50 uM PCPS", "method": "(§3) FV-810, FV-810^R709Q (▴), FV-810^R1545Q (♦), and FV-810^QQ (▪) were pretreated with buffer (FIG. 14A) or thrombin (FIG. 14B).\nas §2"}, "[10]": {"target": "T1, Oregon Green 488 maleimide-modified BR …", "assay": "fluorescence anisotropy; FVDT titrated into fluorescently labeled FVBR (probe concentration not given)"}, "[11]": {"target": "T2, TFPI C-terminal tail peptide", "T2 construct": "The limits are therefore uncertain; also called TFPI peptide", "T2 peptide": "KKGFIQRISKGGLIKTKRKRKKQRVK", "assay": "fluorescence anisotropy; FVDT titrated into the TFPI peptide (label and probe concentration not stated)"}, "[12]": {"target": "T3, Fluorescently-labeled, active site-blocked FXa (UniProt P00742 41-179; P00742 235-488, fluorescently-labeled, active site-blocked (label and blocker not named))", "T3 construct": "also called fluorescently labeled FXa", "T3 sequence (P00742 41-179 limits assumed, chain 1 of 2)": "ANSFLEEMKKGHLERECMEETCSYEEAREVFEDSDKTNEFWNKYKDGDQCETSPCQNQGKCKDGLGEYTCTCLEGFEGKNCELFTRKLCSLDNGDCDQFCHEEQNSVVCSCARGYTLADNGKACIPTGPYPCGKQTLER", "T3 sequence (P00742 235-488 limits assumed, chain 2 of 2)": "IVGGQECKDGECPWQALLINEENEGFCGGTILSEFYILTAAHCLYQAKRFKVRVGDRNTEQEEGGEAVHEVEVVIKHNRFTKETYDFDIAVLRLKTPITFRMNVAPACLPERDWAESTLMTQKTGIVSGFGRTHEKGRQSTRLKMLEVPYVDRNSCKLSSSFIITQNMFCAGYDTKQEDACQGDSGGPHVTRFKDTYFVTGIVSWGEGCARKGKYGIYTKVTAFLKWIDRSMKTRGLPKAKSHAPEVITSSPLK", "assay": "fluorescence anisotropy; FVDT titrated into fluorescently labeled, active site-blocked FXa on PCPS liposomes, buffer only (no FVBR); concentration of labeled FXa not given"}, "[13]": {"target": "T1, Oregon Green 488 maleimide-modified BR …", "assay": "fluorescence anisotropy; buffer-pretreated FV-810 QQ titrated into 30 nM OG488-BR with 50 uM PCPS", "method": "as §3, §2"}, "[14]": {"target": "T1, Oregon Green 488 maleimide-modified BR …", "assay": "fluorescence anisotropy; thrombin-pretreated, hirudin-quenched FV-810 QQ titrated into 30 nM OG488-BR with 50 uM PCPS", "method": "as §3, §2"}, "[15]": {"target": "T1, Oregon Green 488 maleimide-modified BR …", "assay": "fluorescence anisotropy; buffer-pretreated FV-810 R709Q titrated into 30 nM OG488-BR with 50 uM PCPS", "method": "as §3, §2"}, "[16]": {"target": "T1, Oregon Green 488 maleimide-modified BR …", "assay": "fluorescence anisotropy; buffer-pretreated FV-810 R1545Q titrated into 30 nM OG488-BR with 50 uM PCPS", "method": "as §3, §2"}, "[17]": {"target": "B2", "assay": "fluorescence anisotropy displacement; unlabeled BR titrated into 30 nM OG488-BR, 20 nM FV-810, 50 uM PCPS", "method": "as §1\n(§4) Data were analyzed by nonlinear least squares regression analysis using the Marquardt algorithm (Bevington et al. (1992) Data Reduction and Error Analysis for the Physical Sciences, pp. 141-167, McGraw-Hill, New York), and the quality of each fit was assessed as described (Straume et al. (1992) Methods Enzymol., 210:87-105)."}, "[18]": {"target": "B2", "assay": "fluorescence anisotropy displacement of OG488-BR; 30 nM OG488-BR, 20 nM FV-810, 50 uM PCPS; stoichiometry of 1 assumed"}, "[19]": {"target": "B2", "assay": "global fit of prethrombin-2 activation rates (1-50 nM FXa, 0-1000 nM BR, 5 nM FV-810, 50 uM PCPS) to a tight, competitive binding model", "method": "as §4"}, "[20]": {"target": "B2", "assay": "fluorescence anisotropy, displacement; human BR titrated into 30 nM OG488-BR, 20 nM FV-810, 50 uM PCPS, 25 C; competitor: OG488-BR"}, "[21]": {"target": "B2", "assay": "fluorescence anisotropy, displacement; unlabeled BR titrated into 30 nM OG488-BR, 20 nM FV-810, 50 uM PCPS; competitor: OG488-BR [inset]", "method": "as §1"}, "[22]": {"target": "B2", "assay": "fluorescence anisotropy, displacement; FVBR titrated into labeled active site-blocked FXa plus FVDT on PCPS liposomes; displaced ligand: labeled FXa"}}, "note": "Residue numbers refer to the chain shown, from its start.", "data": [{"molecule": "catalytically inactive FXa^S195A (from UniProt P00742 41-179; P00742 235-488) (enzyme)", "values": [{"measurement": "n (stoichiometry) (mol of FXa/mol of FV-810)", "setting": "[1]", "result": 1.1}, {"measurement": "IC50 (read off the curve)", "setting": "[2]", "result": 40, "unit": "nM"}]}, {"molecule": "Factor Xa (FXa) (from UniProt P00742 41-179; P00742 235-488) (enzyme)", "values": [{"measurement": "Kd", "setting": "[3]", "result": 2, "unit": "nM"}]}, {"molecule": "B1", "values": [{"measurement": "fold weaker binding than the human BR", "setting": "[4]", "result": 10, "unit": "fold"}, {"measurement": "Kd", "setting": "[5]", "result": 28.3, "unit": "nM"}, {"measurement": "IC50 (read off the curve)", "setting": "[6]", "result": "300 to 400", "unit": "nM"}]}, {"molecule": "B2", "values": [{"measurement": "EC50 (read off the curve)", "setting": "[7]", "result": "~8", "unit": "nM"}, {"measurement": "EC50 (read off the curve)", "setting": "[8]", "result": "~10", "unit": "nM"}, {"measurement": "EC50 (read off the curve)", "setting": "[9]", "result": "10 to 15", "unit": "nM"}, {"measurement": "EC50 (read off the curve)", "setting": "[10]", "result": "10 to 15", "unit": "nM"}, {"measurement": "EC50 (read off the curve)", "setting": "[11]", "result": "~10", "unit": "nM"}, {"measurement": "EC50 (read off the curve)", "setting": "[12]", "result": "6 to 8", "unit": "nM"}]}, {"molecule": "B3", "values": [{"measurement": "EC50 (read off the curve)", "setting": "[13]", "result": "~9", "unit": "nM"}, {"measurement": "EC50 (read off the curve)", "setting": "[14]", "result": "10 to 15", "unit": "nM"}]}, {"molecule": "B4", "values": [{"measurement": "EC50 (read off the curve)", "setting": "[15]", "result": "15 to 20", "unit": "nM"}]}, {"molecule": "B5", "values": [{"measurement": "EC50 (read off the curve)", "setting": "[16]", "result": "10 to 15", "unit": "nM"}]}, {"molecule": "B6", "values": [{"measurement": "Kd", "setting": "[17]", "result": 2.1, "unit": "nM"}, {"measurement": "Kd", "setting": "[18]", "result": 2.2, "unit": "nM"}, {"measurement": "Kd", "setting": "[19]", "result": 34.2, "unit": "nM"}, {"measurement": "IC50 (read off the curve)", "setting": "[20]", "result": "~50", "unit": "nM"}, {"measurement": "IC50 (read off the curve)", "setting": "[21]", "result": "~50", "unit": "nM"}, {"measurement": "IC50 (read off the curve)", "setting": "[22]", "result": "~90", "unit": "nM"}]}]}
